From paper doi:10.1101/2023.09.21.558871, “Protein G-quadruplex interactions and their effects on phase transitions and protein aggregation” come the findings set out here.

The series addresses T1, Znf706 A2C-AF488 (Homo sapiens, UniProt Q9Y5V0 1-76, A2C).
T1 sequence: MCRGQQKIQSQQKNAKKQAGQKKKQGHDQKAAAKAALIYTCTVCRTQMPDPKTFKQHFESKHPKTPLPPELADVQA
Put plainly: fluorescence anisotropy; 20 mM NaPi, 100 mM KCl, 0.05% NaN3, pH 7.4, 25 C (FP/anisotropy); unfolded G4: 20 mM Tris-HCl, 100 mM LiCl, pH 7.4; G4C2 also 20 mM NaPi, 100 mM NaCl, pH 7.4; NMR at 4 C or 37-50 C with 7.5% D2O. Particulars: protein: recombinant; tags: AF488 label on Cys; His6-SUMO cleaved.

Regarding AAAAAAAAAAAAAAAAAAAA (ssDNA) [polyA], the binding result was “no binding”.
Turning to TTTTTTTTTTTTTTTTTTTT (ssDNA) [polyT], the binding result is listed as “no binding”.
